Results on 1 substance are retold here after publication PMC11980593.

The target in the assay is hexahistidine-tagged VapD toxin from Campylobacter jejuni (VapD^Cje) (Campylobacter jejuni). In words: crystal structure; co-expressed and co-purified VapD-VapW complex; sitting drop at 20°C, 20% PEG 1000, 100 mM sodium phosphate dibasic/citric acid pH 4.2, 200 mM lithium sulfate; space group C 2 2 21; 1.95 Å.

Substance “strep-tagged VapW antitoxin from Campylobacter jejuni (VapW^Cje) (natural protein)” yielded a stoichiometry N (VapD per VapW (2:2)) of 1.
